Patent US20090148400A1 (IMMATICS BIOTECHNOLOGIES GMHH, published 2009)
Where no end group is shown, it is not given here.

molecular target: T1, recombinant HLA-A*0201 molecule (HLA-A*0201 heavy chain refolded with beta-2 microglobulin) (human); assay: ELISA-based HLA refolding assay
Experimental: (§1) The amount of de novo-folded HLA/peptide complexes was determined by a quantitative ELISA. Dissociation constants (KD values) were calculated using a standard curve recorded from dilutions of a calibrant HLA/peptide complex.

binding result | Binder
binds | YVDPVITSI [IMA-MET-001]
binds | LLGATCMFV [IMA-CCN-001]
binds | KLMDLDVEQL [IMA-PCN-001]
binds | ILAPVILYI [IMA-NOX-001]
binds | ALSNLEVTL (also: acetate salt) [IMA-C20-001]
binds | KIFDEILVNA [IMA-TOP-001]

molecular target: T1, recombinant HLA-A*0201 molecule …; assay: ELISA-based HLA refolding assay: recombinant HLA-A*0201 heavy chain with b2m and graded doses of peptide
Experimental: as §1

Kd | Binder
0.001 nM | ALFVRLLALA [IMA-TGFBI-001]
0.2 nM | ILDQKINEV [IMA-ODC-001]

molecular target: T1, recombinant HLA-A*0201 molecule …; assay: remark on making pMHC monomers for in vitro stimulation

binding result | Binder
binds | STAPPVHNV [IMA-MUC-001]
